Results on three variants are retold here after IntAct's records for PubMed 10722738.

Sequences and labels used below:
B1: Early protein (Human adenovirus A serotype 12 (HAdV-12)), P03259-2 (parent)
chain: MRTEMTPLVLSYQEADDILEHLVDNFFNEVPSDDDLYVPSLYELYDLDVESAGEDNNEQAVNEFFPESLILAASEGLFLPEPPVLSPVCEPIGGECMPQLHPEDMDLLCYEMGFPCSDSEDEQDENGMAHVSASAAAAAADREREEFQLDHPELPGHNCPVSDNEPEPNSTLDGDERPSPPKLGSAVPEGVIKPVPQRVTGRRRCAVESILDLIQEEEREQTVPVDLSVKRPRCN

The assay covers variants of B1. As to conditions: with cbp_human CREBBP.
Consider L19S, for which the “effect of a mutation on the interaction” value is given as “decreasing interaction”.

Turning to D16A, the “effect of a mutation on the interaction” value is given as “disrupting interaction”.

I18P: the “effect of a mutation on the interaction” value was “decreasing interaction”.
